The supplement of paper PMC7125110
± gives the standard error. For part of these data: This sample holds only a part of the variants without activity.

B1: glmS ribozyme (parent)
chain: AUAAAAGCGCCAGAACUACAGAAAUGUAGUUGACGAGGAGGAGGUUUAUCGAAUUUUCGGCGGAUGCCUCCAAA

Tests used:
Settings in all cases: with glucosamine-6-phosphate
glucosamine-6-phosphate [1] = variants of: B1; experiment: kcat; higher = faster cleavage; RNA array
Summary of the method: (§1)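 Barcoded ribozyme variants on sequenced MiSeq chips were transcribed in situ by E. coli RNA polymerase and followed at 37 °C through a hybridised Cy3 probe. Glucosamine-6-phosphate at 40 μM to 10 mM in HEPES/KCl/Mg(OAc)2 buffer was flowed in, and tiles were imaged over ~14 h. Signals were normalised to baseline and to non-cleaving reference variants, and per-tile medians were fit to one- or two-exponential decays to give kobs. Weighted Michaelis–Menten fits across concentrations gave kcat and KM.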

glucosamine-6-phosphate [2] = variants of: B1; experiment: KM; higher = weaker cofactor use; RNA array
Summary of the method: as §1

glucosamine-6-phosphate [3] = variants of: B1; experiment: self-cleavage kobs at 640 uM GlcN6P; higher = faster cleavage; RNA array
Summary of the method: as §1

glucosamine-6-phosphate [4] = variants of: B1; experiment: self-cleavage kobs at 2500 uM GlcN6P; higher = faster cleavage; RNA array
Summary of the method: as §1

glucosamine-6-phosphate [5] = variants of: B1; experiment: self-cleavage kobs at 10000 uM GlcN6P; higher = faster cleavage; RNA array
Summary of the method: as §1

glucosamine-6-phosphate [6] = variants of: B1; experiment: self-cleavage kobs at 40 uM GlcN6P; higher = faster cleavage; RNA array
Summary of the method: as §1

glucosamine-6-phosphate [7] = variants of: B1; experiment: self-cleavage kobs at 160 uM GlcN6P; higher = faster cleavage; RNA array
Summary of the method: as §1

## AUAAAAGCGCCAGAACUACAGAAAUGUAGUUGACGAGGAGGAGGUUUAUCGACUUUUCGGCGGAUCCCUCCAAA [A53C G66C]
glucosamine-6-phosphate [1]
  kcat: 0.000476 ± 8.1e-05 s⁻¹
glucosamine-6-phosphate [2]
  KM: 2510 ± 780 µM
glucosamine-6-phosphate [3]
  self-cleavage kobs at 640 uM GlcN6P: 9.27e-05 ± 1.9e-05 s⁻¹
glucosamine-6-phosphate [4]
  self-cleavage kobs at 2500 uM GlcN6P: 0.00034 ± 0.00011 s⁻¹
glucosamine-6-phosphate [5]
  self-cleavage kobs at 10000 uM GlcN6P: 0.000368 ± 6.5e-05 s⁻¹

## AUAAAAGCGCCAGACCUACAGAAAUGUAGUUGACGAGGAAGAGGUUUAUCGAAUUUUCGGCGGAUGCCUCCAAA [A15C G40A]
glucosamine-6-phosphate [1]
  kcat: 0.000642 ± 0.00018 s⁻¹
glucosamine-6-phosphate [2]
  KM: 1860 ± 840 µM
glucosamine-6-phosphate [6]
  self-cleavage kobs at 40 uM GlcN6P: 2.42e-05 ± 9.8e-06 s⁻¹
glucosamine-6-phosphate [7]
  self-cleavage kobs at 160 uM GlcN6P: 8.81e-05 ± 2.4e-05 s⁻¹
glucosamine-6-phosphate [3]
  self-cleavage kobs at 640 uM GlcN6P: 0.000149 ± 2e-05 s⁻¹
glucosamine-6-phosphate [4]
  self-cleavage kobs at 2500 uM GlcN6P: 0.000365 ± 7.3e-05 s⁻¹
glucosamine-6-phosphate [5]
  self-cleavage kobs at 10000 uM GlcN6P: 0.000584 ± 0.00012 s⁻¹

## AUAAAAGCGCCAGAACUACAGAAAUGUAGUUGACGAGGAGGAGGUUUAUCGAAUGUUCGCCGGAUGCCUCCAAA [U55G G60C]
glucosamine-6-phosphate [1]
  kcat: < 1e-05 s⁻¹
glucosamine-6-phosphate [7]
  self-cleavage kobs at 160 uM GlcN6P: < 1e-05 s⁻¹

## AUAAAAUCGCCAGAACUACAGAAAUGUAGUUGACGAGGAGGAGGUUUAUCAAAUUUUCGGCAGAUGCCUUCAAA [G7U G51A G62A C70U]
glucosamine-6-phosphate [1]
  kcat: 1.17e-05 ± 2.6e-06 s⁻¹

## AUAAAAGCGCCAGAACUACAGAAAUGUAGUUGACGAGGAGGAGGUCUAUCGAAGUUUCGGCGGAUGCCUCCAAA [U46C U54G]
glucosamine-6-phosphate [1]
  kcat: 0.00333 ± 0.00031 s⁻¹
glucosamine-6-phosphate [2]
  KM: 1370 ± 200 µM
glucosamine-6-phosphate [6]
  self-cleavage kobs at 40 uM GlcN6P: 9.45e-05 ± 1.5e-05 s⁻¹
glucosamine-6-phosphate [3]
  self-cleavage kobs at 640 uM GlcN6P: 0.000997 ± 0.00031 s⁻¹
glucosamine-6-phosphate [4]
  self-cleavage kobs at 2500 uM GlcN6P: 0.00284 ± 0.00085 s⁻¹
glucosamine-6-phosphate [5]
  self-cleavage kobs at 10000 uM GlcN6P: 0.00287 ± 0.0004 s⁻¹

## AUAAAAGCGCCAGCACUACAGAAAUGUAGAUGACGAGGAGGAGGUUUAUCGAAUUUUCGGCGGAUGCCUCCAAA [A14C U30A]
glucosamine-6-phosphate [1]
  kcat: 0.00104 ± 0.00011 s⁻¹
glucosamine-6-phosphate [2]
  KM: 2710 ± 480 µM
glucosamine-6-phosphate [7]
  self-cleavage kobs at 160 uM GlcN6P: 6.84e-05 ± 2e-05 s⁻¹
glucosamine-6-phosphate [3]
  self-cleavage kobs at 640 uM GlcN6P: 0.000182 ± 3.9e-05 s⁻¹
glucosamine-6-phosphate [4]
  self-cleavage kobs at 2500 uM GlcN6P: 0.000568 ± 0.00017 s⁻¹
glucosamine-6-phosphate [5]
  self-cleavage kobs at 10000 uM GlcN6P: 0.000813 ± 0.00013 s⁻¹

## AUAAAAGCGCCAGAACUACAGAAAUGUAGUCGACGAGGAGGAGGUUUAUCGAAUUUUGGGCGGAUGCCUCCAAA [U31C C58G]
glucosamine-6-phosphate [1]
  kcat: 7.48e-05 ± 2.5e-05 s⁻¹
glucosamine-6-phosphate [6]
  self-cleavage kobs at 40 uM GlcN6P: < 1e-05 s⁻¹
glucosamine-6-phosphate [3]
  self-cleavage kobs at 640 uM GlcN6P: 2.98e-05 ± 1.3e-05 s⁻¹
glucosamine-6-phosphate [4]
  self-cleavage kobs at 2500 uM GlcN6P: 2.91e-05 ± 1.1e-05 s⁻¹
glucosamine-6-phosphate [5]
  self-cleavage kobs at 10000 uM GlcN6P: 6.27e-05 ± 1.2e-05 s⁻¹

## AUAAAAGCGCCAGAACUACAGAAAUGUAGUUGACGAGGAGGAGGAUUAUCGAAUUGUCGGCGGAUGCCUCCAAA [U45A U56G]
glucosamine-6-phosphate [1]
  kcat: 0.0614 ± 0.024 s⁻¹
glucosamine-6-phosphate [2]
  KM: 3390 ± 1600 µM
glucosamine-6-phosphate [6]
  self-cleavage kobs at 40 uM GlcN6P: 0.000857 ± 0.00011 s⁻¹
glucosamine-6-phosphate [7]
  self-cleavage kobs at 160 uM GlcN6P: 0.00188 ± 0.00049 s⁻¹
glucosamine-6-phosphate [3]
  self-cleavage kobs at 640 uM GlcN6P: 0.0108 ± 0.0024 s⁻¹
glucosamine-6-phosphate [4]
  self-cleavage kobs at 2500 uM GlcN6P: 0.0272 ± 0.0087 s⁻¹
glucosamine-6-phosphate [5]
  self-cleavage kobs at 10000 uM GlcN6P: 0.0457 ± 0.011 s⁻¹
